# Laboratory results taken from IntAct's records for PubMed 31515488.
# B1: ATP-binding cassette sub-family F member 3 (Homo sapiens), Q9NUQ8 (parent)
# chain: MATCAEILRSEFPEIDGQVFDYVTGVLHSGSADFESVDDLVEAVGELLQEVSGDSKDDAGIRAVCQRMYNTLRLAEPQSQGNSQVLLDAPIQLSKITENYDCGTKLPGLLKREQSSTVNAKKLEKAEARLKAKQEKRSEKDTLKTSNPLVLEEASASQAGSRKESRLESSGKNKSYDVRIENFDVSFGDRVLLAGADVNLAWGRRYGLVGRNGLGKTTLLKMLATRSLRVPAHISLLHVEQEVAGDDTPALQSVLESDSVREDLLRRERELTAQIAAGRAEGSEAAELAEIYAKLEEIEADKAPARASVILAGLGFTPKMQQQPTREFSGGWRMRLALARALFARPDLLLLDEPTNMLDVRAILWLENYLQTWPSTILVVSHDRNFLNAIATDIIHLHSQRLDGYRGDFETFIKSKQERLLNQQREYEAQQQYRQHIQVFIDRFRYNANRASQVQSKLKMLEKLPELKPVDKESEVVMKFPDGFEKFSPPILQLDEVDFYYDPKHVIFSRLSVSADLESRICVVGENGAGKSTMLKLLLGDLAPVRGIRHAHRNLKIGYFSQHHVEQLDLNVSAVELLARKFPGRPEEEYRHQLGRYGISGELAMRPLASLSGGQKSRVAFAQMTMPCPNFYILDEPTNHLDMETIEALGRALNNFRGGVILVSHDERFIRLVCRELWVCEGGGVTRVEGGFDQYRALLQEQFRREGFL
# partner: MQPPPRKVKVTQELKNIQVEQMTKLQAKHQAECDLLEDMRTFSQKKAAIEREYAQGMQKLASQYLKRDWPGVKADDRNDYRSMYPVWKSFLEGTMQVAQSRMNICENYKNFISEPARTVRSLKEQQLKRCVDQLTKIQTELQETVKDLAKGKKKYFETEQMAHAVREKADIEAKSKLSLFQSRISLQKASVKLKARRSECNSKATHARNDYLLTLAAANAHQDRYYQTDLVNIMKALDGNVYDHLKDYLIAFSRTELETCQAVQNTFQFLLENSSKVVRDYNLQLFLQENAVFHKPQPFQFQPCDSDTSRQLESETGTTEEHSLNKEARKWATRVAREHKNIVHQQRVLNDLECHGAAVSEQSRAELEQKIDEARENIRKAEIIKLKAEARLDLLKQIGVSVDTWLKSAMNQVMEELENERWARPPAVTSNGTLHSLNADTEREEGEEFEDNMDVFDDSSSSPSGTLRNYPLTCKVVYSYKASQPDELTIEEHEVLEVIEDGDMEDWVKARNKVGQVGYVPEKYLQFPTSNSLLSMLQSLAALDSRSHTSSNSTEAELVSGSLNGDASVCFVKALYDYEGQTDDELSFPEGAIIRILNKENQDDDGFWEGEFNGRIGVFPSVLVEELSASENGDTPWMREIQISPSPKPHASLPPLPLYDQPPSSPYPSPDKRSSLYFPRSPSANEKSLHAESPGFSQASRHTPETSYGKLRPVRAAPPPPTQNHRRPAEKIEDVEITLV
# B2: Homeobox protein VENTX (Homo sapiens), O95231 (parent)
# chain: MRLSSSPPRGPQQLSSFGSVDWLSQSSCSGPTHTPRPADFSLGSLPGPGQTSGAREPPQAVSIKEAAGSSNLPAPERTMAGLSKEPNTLRAPRVRTAFTMEQVRTLEGVFQHHQYLSPLERKRLAREMQLSEVQIKTWFQNRRMKHKRQMQDPQLHSPFSGSLHAPPAFYSTSSGLANGLQLLCPWAPLSGPQALMLPPGSFWGLCQVAQEALASAGASCCGQPLASHPPTPGRPSLGPALSTGPRGLCAMPQTGDAF
# partner: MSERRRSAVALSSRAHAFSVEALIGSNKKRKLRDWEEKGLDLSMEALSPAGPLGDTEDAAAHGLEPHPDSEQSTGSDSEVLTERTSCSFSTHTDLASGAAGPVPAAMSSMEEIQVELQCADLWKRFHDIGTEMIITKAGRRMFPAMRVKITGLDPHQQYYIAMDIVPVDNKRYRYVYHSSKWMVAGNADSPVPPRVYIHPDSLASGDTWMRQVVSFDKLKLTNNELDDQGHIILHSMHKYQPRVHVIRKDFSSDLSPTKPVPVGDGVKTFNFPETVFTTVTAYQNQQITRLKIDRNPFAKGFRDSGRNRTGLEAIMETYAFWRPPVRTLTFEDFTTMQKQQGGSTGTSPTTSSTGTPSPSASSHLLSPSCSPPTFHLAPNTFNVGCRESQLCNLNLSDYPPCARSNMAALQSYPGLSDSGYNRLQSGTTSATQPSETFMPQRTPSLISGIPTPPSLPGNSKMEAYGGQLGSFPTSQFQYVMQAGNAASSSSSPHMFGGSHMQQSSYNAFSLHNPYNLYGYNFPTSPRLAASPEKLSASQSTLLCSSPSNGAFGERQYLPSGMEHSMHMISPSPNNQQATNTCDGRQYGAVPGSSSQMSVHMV
# Variants of: B1
# Settings: with fcsd2_human FCHSD2, O94868
row,effect of a mutation on the interaction,Variant
1,with no effect,R510H
2,with no effect,R340W

# Variants of: B2
# Settings: with tbx15_human TBX15, Q96SF7
row,effect of a mutation on the interaction,Variant
1,with no effect,L42P
2,with no effect,M251V
3,with no effect,A226E
